Assay results taken from PMC4198062.

Target: c-Jun (UniProt P05412)
Assay: single molecule FRET, surface-immobilized PAGE4
Settings: reference: PAGE4 P102C expressed alone (nonphosphorylated); sites T51

other: percent of molecules shifted to low FRET with c-Jun: weaker; reference 70
Substance: PAGE4 (from UniProt O60829) PAGE4 P102C coexpressed with GST-HIPK1 in E. coli
